Drawing on article PMC4323994, this text covers IC50 for three molecules.

What all share (assay): ELISA
The target in assay [1] is HLA-DR molecule, DRB1*0101 (human).
For assay [2], the target named is HLA-DR molecule, DRB1*1501 (human).
Assay [3] deals with HLA-DR molecule, DRB1*0701 (human).

Where no end group is shown, it is not given here. Where only a bound is given, the exact number is not on record here.

Regarding GKQLYNVEATSYALLALLQLKDFD (also: amino and carboxyl ends blocked) [C3d_(223–246)], the IC50 in assay [1] was less than 2 µM; in assay [2], 85.1 µM; in assay [3], less than 2 µM.

Take GKQLYNVEATSYALL (also: amino and carboxyl ends blocked) [C3d_(223–237) wild type peptide (sequence overlapping the P28 peptide segment and C3d_(223–246))]: the 50% inhibitory concentration (IC50) in assay [1] is 0.365 µM.

For the molecule QATFMVFQALAQYQKDAP (also: amino and carboxyl ends blocked) [C3d_(269–286)], the IC50 in assay [1] was 5.63 µM; in assay [2], more than 100 µM; in assay [3] it was 2.45 µM.

In general, IC50 refers to the concentration at which inhibition is half-maximal. Read a high IC50 as a need for much substance.
